Assay results published in patent US20240209078A1 (Amgen, published 2024).
Where two headings read alike, the source gives them in different places.

Tests used:
[1] = target: T1, human CDH3 (Cadherin-3, P-Cadherin) (human, UniProt P22223 108-829); assay: cell-based or functional assay
[2] = target: T1, human CDH3 (Cadherin-3, P-Cadherin); assay: cell-based or functional assay; remark: listed apart in the source
mouse MSLN protein = target: T2, mouse MSLN protein (mouse, UniProt Q61468 298-600); assay: flow cytometry on transfected CHO cells
T2 construct: whole, on cells; also called full-length mouse MSLN
T2 sequence (looked up): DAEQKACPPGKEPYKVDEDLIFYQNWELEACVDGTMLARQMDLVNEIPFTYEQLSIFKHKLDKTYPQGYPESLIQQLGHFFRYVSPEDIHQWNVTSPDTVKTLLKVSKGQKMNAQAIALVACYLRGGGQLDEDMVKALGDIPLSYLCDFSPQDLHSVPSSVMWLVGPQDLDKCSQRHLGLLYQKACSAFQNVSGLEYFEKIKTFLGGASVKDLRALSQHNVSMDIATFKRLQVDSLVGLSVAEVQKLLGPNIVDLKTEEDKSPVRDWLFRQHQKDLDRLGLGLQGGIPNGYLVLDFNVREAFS

[3] = target: T1, human CDH3 (Cadherin-3, P-Cadherin); assay: cell-based or functional assay; remark: listed apart in the source
[4] = target: T1, human CDH3 (Cadherin-3, P-Cadherin); assay: cell-based or functional assay; remark: listed apart in the source
[5] = target: T1, human CDH3 (Cadherin-3, P-Cadherin); assay: cell-based or functional assay; remark: listed apart in the source
[6] = target: T1, human CDH3 (Cadherin-3, P-Cadherin); assay: cell-based or functional assay; remark: listed apart in the source
[7] = target: T1, human CDH3 (Cadherin-3, P-Cadherin); assay: cell-based or functional assay; remark: listed apart in the source

B1: CH3 15-E11 VAG CC×I2L×G4×scFc×MS 15-B12 CC×I2L clipopt ID (SEQ ID NO 434) (bispecific antibody)
chain: QVQLVQSGAEVKKPGASVKVSCKASGYTFTNYWMNWVRQAPGQCLEWMGNIAYGVAGTNYNQKFQGRVTMTVDTSSSTAYMELSRLRSDDTAVYYCATRYFYVMDYWGQGTLVTVSSGGGGQGGGGQGGGGQDIQMTQSPSSLSASVGDRVTITCRASQDISNYLNWYQQKPGKVPKLLIYYTSRLHSGVPSRFSGSGSGTDFTLTISSLQPEDVATYYCVQYAQFPLTFGCGTKVEIKSGGGGQEVQLVESGGGLVQPGGSLKLSCAASGFTFNKYAMNWVRQAPGKGMEWVARIRSKYNNYATYYADAVKDRFTISRDDSKNTLYLQMNNLKTEDTAVYYCVRAGNFGSSYISYFAYWGQGTLVTVSSGGGGQGGGGQGGGGQQTVVTQEPSLTVSPGGTVTITCGSSTGAVTSGNYPNWIQKKPGQAPRGLIGGTKFLAPGTPARFSGSLEGGKAALTLSGVQPEDEAEYYCVLYYSNRWVFGSGTKLTVLGGGGCPPCPAPELLGGPSVFLFPPKPKDTLMISRTPEVTCVVVDVSHEEPEVKFNWYVDGVEVHNAKTKPCEEQYGSTYRCVSVLTVLHQDWLNGKEYKCKVSNKALPAPIEKTISKAKGQPREPQVYTLPPSREEMTKNQVSLTCLVKGFYPSDIAVEWESNGQPENNYKTTPPVLDSDGSFFLYSKLTVDKSRWQQGNVFSCSVMHEALHNHYTQKSLSLSPGKGGGGQGGGGQGGGGQGGGGQGGGGQGGGGQCPPCPAPELLGGPSVFLFPPKPKDTLMISRTPEVTCVVVDVSHEEPEVKFNWYVDGVEVHNAKTKPCEEQYGSTYRCVSVLTVLHQDWLNGKEYKCKVSNKALPAPIEKTISKAKGQPREPQVYTLPPSREEMTKNQVSLTCLVKGFYPSDIAVEWESNGQPENNYKTTPPVLDSDGSFFLYSKLTVDKSRWQQGNVFSCSVMHEALHNHYTQKSLSLSPGKGGGGQVQLQESGPGLVKPSETLSLTCTVSGGSISSSSYFWGWIRQPPGKCLEWIGNIYYSGSSNYNPSLKSRVTISVDTSKNQFSLKLSSVTAADTAVYYCARLPRGDRDAFDIWGQGTMVTVSSGGGGQGGGGQGGGGQDIVMTQSPSSLSASVGDRVTITCRASQGISNYLAWYQQKPGKVPKLLIYAASTLQSGVPSRFSGSGSGTDFTLTISSLQPEDFATYYCQQSYSTPFTFGCGTKVEIKSGGGGQEVQLVESGGGLVQPGGSLKLSCAASGFTFNKYAMNWVRQAPGKGMEWVARIRSKYNNYATYYADAVKDRFTISRDDSKNTLYLQMNNLKTEDTAVYYCVRAGNFGSSYISYFAYWGQGTLVTVSSGGGGQGGGGQGGGGQQTVVTQEPSLTVSPGGTVTITCGSSTGAVTSGNYPNWIQKKPGQAPRGLIGGTKFLAPGTPARFSGSLEGGKAALTLSGVQPEDEAEYYCVLYYSNRWVFGSGTKLTVL
notes: single-chain multitargeting CDH3 x CD3 - scFc - MSLN x CD3 engager; also called K3T
cytotoxicity EC50, HCT 116 KO MSLN cells [1]: 1.5 pM
cytotoxicity EC50, GSU KO MSLN cells [2]: 245 pM
binding result (mouse MSLN protein): no binding (tested: 5 µg/mL)

B2: CH3 15-E11 CC×I2L×G4×scFc×G4×MS 15-B12 CC×I2L_GQ (SEQ ID NO 251) (bispecific antibody)
chain: QVQLVQSGAEVKKPGASVKVSCKASGYTFTNYWMNWVRQAPGQCLEWMGNIAYGVKGTNYNQKFQGRVTMTVDTSSSTAYMELSRLRSDDTAVYYCATRYFYVMDYWGQGTLVTVSSGGGGQGGGGQGGGGQDIQMTQSPSSLSASVGDRVTITCRASQDISNYLNWYQQKPGKVPKLLIYYTSRLHSGVPSRFSGSGSGTDFTLTISSLQPEDVATYYCVQYAQFPLTFGCGTKVEIKSGGGGQEVQLVESGGGLVQPGGSLKLSCAASGFTFNKYAMNWVRQAPGKGMEWVARIRSKYNNYATYYADAVKDRFTISRDDSKNTLYLQMNNLKTEDTAVYYCVRAGNFGSSYISYFAYWGQGTLVTVSSGGGGQGGGGQGGGGQQTVVTQEPSLTVSPGGTVTITCGSSTGAVTSGNYPNWIQKKPGQAPRGLIGGTKFLAPGTPARFSGSLEGGKAALTLSGVQPEDEAEYYCVLYYSNRWVFGSGTKLTVLGGGGCPPCPAPELLGGPSVFLFPPKPKDTLMISRTPEVTCVVVDVSHEEPEVKFNWYVDGVEVHNAKTKPCEEQYGSTYRCVSVLTVLHQDWLNGKEYKCKVSNKALPAPIEKTISKAKGQPREPQVYTLPPSREEMTKNQVSLTCLVKGFYPSDIAVEWESNGQPENNYKTTPPVLDSDGSFFLYSKLTVDKSRWQQGNVFSCSVMHEALHNHYTQKSLSLSPGKGGGGQGGGGQGGGGQGGGGQGGGGQGGGGQCPPCPAPELLGGPSVFLFPPKPKDTLMISRTPEVTCVVVDVSHEEPEVKFNWYVDGVEVHNAKTKPCEEQYGSTYRCVSVLTVLHQDWLNGKEYKCKVSNKALPAPIEKTISKAKGQPREPQVYTLPPSREEMTKNQVSLTCLVKGFYPSDIAVEWESNGQPENNYKTTPPVLDSDGSFFLYSKLTVDKSRWQQGNVFSCSVMHEALHNHYTQKSLSLSPGKGGGGQVQLQESGPGLVKPSETLSLTCTVSGGSISSSSYFWGWIRQPPGKCLEWIGNIYYSGSSNYNPSLKSRVTISVDTSKNQFSLKLSSVTAADTAVYYCARLPRGDRDAFDIWGQGTMVTVSSGGGGQGGGGQGGGGQDIVMTQSPSSLSASVGDRVTITCRASQGISNYLAWYQQKPGKVPKLLIYAASTLQSGVPSRFSGSGSGTDFTLTISSLQPEDFATYYCQQSYSTPFTFGCGTKVEIKSGGGGQEVQLVESGGGLVQPGGSLKLSCAASGFTFNKYAMNWVRQAPGKGMEWVARIRSKYNNYATYYADAVKDRFTISRDDSKNTLYLQMNNLKTEDTAVYYCVRAGNFGSSYISYFAYWGQGTLVTVSSGGGGQGGGGQGGGGQQTVVTQEPSLTVSPGGTVTITCGSSTGAVTSGNYPNWIQKKPGQAPRGLIGGTKFLAPGTPARFSGSLEGGKAALTLSGVQPEDEAEYYCVLYYSNRWVFGSGTKLTVL
notes: single-chain multitargeting engager; also called F5Q
cytotoxicity EC50, E:T ratio 1:1, GSU KO MSLN cells [3]: 322 pM
cytotoxicity EC50, E:T ratio 1:2, GSU KO MSLN cells [3]: 341 pM
cytotoxicity EC50, E:T ratio 10:1, GSU KO MSLN cells [3]: 98 pM
cytotoxicity EC50, HCT 116 KO MSLN cells [4]: 8.7 pM
cytotoxicity EC50, GSU KO MSLN cells [5]: 3.24 nM
cytotoxicity EC50, HCT 116 KO MSLN cells [6]: 8.7 pM
cytotoxicity EC50, GSU KO MSLN cells [7]: 3.24 nM
binding result (mouse MSLN protein): no binding (tested: 5 µg/mL)
